The results in this text go back to US20240132578A1.

What all share (assay): cell-based or functional assay
Experiment [1] deals with HIV-1 92TH021 envelope (Env) on pseudovirus (HIV-1).
For experiment [2], the target named is HIV-1 93IN905 envelope (Env) on pseudovirus (HIV-1).
For experiment [3], the target named is HIV-1 Env of isolate 92TH021 (CRF01_AE) (HIV-1).
The target of experiment [4] is HIV-1 Env of isolate MGRM-Chronic-B-003, clade B (HIV-1).
For experiment [5], the target named is HIV-1 Env of isolate MGRM-D-004 (clade D pseudovirus) (HIV-1).
The target of experiment [6] is HIV-1 Env of isolate SF162 (HIV-1) (UniProt P19550).

On to 2F5 (antibody), for which the neutralization IC50 is 1.51 µg/mL in experiment [1] and greater than 50 µg/mL in experiment [2]. The IC90 (neutralization of pseudovirus) in experiment [3] turned out to be 18.8 µg/mL. Besides, the results for the IC50 (µg/ml), pseudovirus neutralization in experiment [4] and in experiment [6] were 1 µg/mL and 2.52 µg/mL, respectively. The substance also registered an IC50, pseudovirus neutralization in experiment [5] of 2.3 µg/mL.
